Values of other authors in PMC6558399.

Target: Galectin-1 (Homo sapiens) (UniProt P09382)

Kd: 7 µM
Substance: Galectin-1 (from UniProt P09382)
